1 molecule from patent US11479582B2 (KING FAISAL UNIVERSITY, dated 2022) can be followed below.

For the test, the target named is SARS-CoV-2 spike (S) protein, expressed from a synthetic S gene (SARS-CoV-2, UniProt P0DTC2). Description: cell-based or functional assay.

Consider HVLGDISGINASVVQIQKEIDRLNEVAKNLHESLIYLQE [peptide #121 (mutated HR2 39-mer, 'Highest Affinity')], for which the “IC50, SARS-CoV-2 Spike-mediated cell-cell fusion” value amounted to 720 nM; the “IC50, SARS-CoV-2 pseudovirus infection in Calu-3 cells” value came to 160 nM; the “IC50, SARS-CoV-2 pseudovirus infection in VeroE6” value is greater than 10000 nM; the “IC50, TMPRSS2-dependent plasma membrane pathway in VeroE6-TMPRSS2” value was less than 1000 nM.
